T1: 人IL-23-His (human, UniProt Q9NPF7 20-189; P29460 23-328, limits assumed)
T1 sequence (looked up) 1: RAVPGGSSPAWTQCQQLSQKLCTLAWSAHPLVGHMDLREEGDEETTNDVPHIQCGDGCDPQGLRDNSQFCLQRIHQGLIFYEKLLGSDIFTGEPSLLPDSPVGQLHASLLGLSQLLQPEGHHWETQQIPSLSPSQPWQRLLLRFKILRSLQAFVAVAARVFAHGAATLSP
T1 sequence (looked up) 2: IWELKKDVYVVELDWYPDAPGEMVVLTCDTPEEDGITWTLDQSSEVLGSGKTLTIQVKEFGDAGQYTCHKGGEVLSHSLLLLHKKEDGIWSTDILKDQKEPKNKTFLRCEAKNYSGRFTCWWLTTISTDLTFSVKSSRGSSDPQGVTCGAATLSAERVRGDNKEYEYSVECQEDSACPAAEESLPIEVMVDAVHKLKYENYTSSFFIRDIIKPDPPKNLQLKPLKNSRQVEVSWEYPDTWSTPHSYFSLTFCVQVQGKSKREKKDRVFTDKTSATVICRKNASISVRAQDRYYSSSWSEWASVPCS


Experiments:
人IL-23-His [1] = target: T1, 人IL-23-His; test: cell-based or functional assay
人IL-23-His [2] = target: T1, 人IL-23-His; test: Biacore (SPR), human IL-23-His

| 抑制IL-23激活小鼠脾细胞分泌IL-17: 剂量浓度 at which the inhibition is better than that of Guselkumab (人IL-23-His [1]) [µg/mL] | Kd (人IL-23-His [2]) [nM] | koff (人IL-23-His [2]) [s⁻¹] | kon (人IL-23-His [2]) [M⁻¹ s⁻¹] | Binder |
| --- | --- | --- | --- | --- |
| 0.063 | 0.0625 | 6.97e-06 | 111000 | 改造后抗体S5-5HWTL (antibody, V domains shown) VH: QVQLVQSGAEVKKPGSSVKVSCKASGGTFSSYAISWVRQAPGQGLEWMGGIIPIFGTANYAQKFQGRVTITADESTSTAYMELSSLRSEDTAVYYCARDRFGLYYYYGMDVWGQGTMVTVSS VL: QSVLTQPPSVSGAPGQRVTISCTGGSSSIGAGYDVQWYRQLPGIAPKLLIYRSTNRPSGVPARFSGSKSGASASLAITGLQAEDEADYYCVSYDSSLGGYVFGTGTKVTVL |
| 0.167 | 0.108 | 1.18e-05 | 109000 | 改造后抗体S5-15HWTL (antibody, V domains shown) VH: KVQLVQSGAEVKKPGSSVKVSCKASGGTFSSYAISWVRQAPGQGLEWMGGFIPIFGTANYAQKFQGRVTITADESTSTAYMELSSLRSEDTAVYYCARDRTSLYYYYGMDVWGQGTMVTVSS VL: QSVLTQPPSVSGAPGQRVTISCTGGSSSIGAGYDVQWYRQLPGIAPKLLIYRSTNRPSGVPARFSGSKSGASASLAITGLQAEDEADYYCVSYDSSLGGYVFGTGTKVTVL |
| 0.056 | 0.0589 | 6.03e-06 | 102000 | 改造后抗体S5-4H6L (antibody, V domains shown) VH: QVQLVQSGAEVKKPGSSVKVSCKASGGTFSSYAISWVRQAPGQGLEWMGGIIPIFGTANYAQKFQGRVTITADESTSTAYMELSSLRSEDTAVYYCARDRFSLYYYYGMDVWGQGTMVTVSS VL: QSVLTQPPSVSGAPGQRVTISCTGGQSSIGAGYDVQWYRQLPGIAPKLLIYRSTNRPSGVPARFSGSKSGASASLAITGLQAEDEADYYCVSYDASLGGYVFGTGTKVTVL |
